{"source": "paper PMC6633205", "about": "“Cus2 enforces the first ATP-dependent step of splicing by binding to yeast SF3b1 through a UHM–ULM interaction” (RNA, 2019)", "key": {"[1]": {"target": "SF3b1 ULM5 (Homo sapiens) (UniProt O75533)", "details": "cited from earlier work"}, "[2]": {"target": "T1, Cus2, full length, with C-terminal His-tag (S. cerevisiae, UniProt P53830 1-285)", "T1 construct": "also called full-length Cus2; recombinant wild-type Cus2", "T1 sequence (looked up)": "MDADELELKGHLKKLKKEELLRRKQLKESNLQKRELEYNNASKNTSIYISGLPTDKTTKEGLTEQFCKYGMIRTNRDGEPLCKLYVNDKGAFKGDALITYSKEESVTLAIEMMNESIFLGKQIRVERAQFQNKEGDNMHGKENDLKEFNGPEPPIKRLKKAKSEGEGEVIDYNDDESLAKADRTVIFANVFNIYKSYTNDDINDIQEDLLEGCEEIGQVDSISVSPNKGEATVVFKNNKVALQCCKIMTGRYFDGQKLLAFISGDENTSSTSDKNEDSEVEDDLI", "assay": "ITC; apparent; Cus2 or Tat-SF1 proteins titrated with Hsh155 ULM peptide (95-109); 50 mM NaCl, 25 mM HEPES pH 7.4, 0.2 mM TCEP; VP-ITC; three replicates", "details": "both partners purified"}, "[3]": {"target": "T2, Cus2 UHM (residues 177-269) (S. cerevisiae, UniProt P53830 177-269)", "T2 construct": "Expressed as a GST fusion from a pGEX-6p variant with a TEV cleavage site for the GST tag; also called isolated Cus2 UHM", "T2 sequence (looked up)": "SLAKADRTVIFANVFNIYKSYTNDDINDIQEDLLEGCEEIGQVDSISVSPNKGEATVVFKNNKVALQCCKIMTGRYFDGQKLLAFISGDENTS", "assay": "ITC; apparent; Cus2 or Tat-SF1 proteins titrated with Hsh155 ULM peptide (95-109); 50 mM NaCl, 25 mM HEPES pH 7.4, 0.2 mM TCEP; VP-ITC; three replicates", "details": "both partners purified"}, "Tat-SF1 (residues 1-360) [4]": {"target": "T3, Tat-SF1 (residues 1-360) (human, UniProt O43719 1-360)", "T3 construct": "lacks the divergent acidic C-terminal expansion; Expressed as a GST fusion from a pGEX-6p variant with a TEV cleavage site for the GST tag; also called recombinant Tat-SF1", "T3 sequence (looked up)": "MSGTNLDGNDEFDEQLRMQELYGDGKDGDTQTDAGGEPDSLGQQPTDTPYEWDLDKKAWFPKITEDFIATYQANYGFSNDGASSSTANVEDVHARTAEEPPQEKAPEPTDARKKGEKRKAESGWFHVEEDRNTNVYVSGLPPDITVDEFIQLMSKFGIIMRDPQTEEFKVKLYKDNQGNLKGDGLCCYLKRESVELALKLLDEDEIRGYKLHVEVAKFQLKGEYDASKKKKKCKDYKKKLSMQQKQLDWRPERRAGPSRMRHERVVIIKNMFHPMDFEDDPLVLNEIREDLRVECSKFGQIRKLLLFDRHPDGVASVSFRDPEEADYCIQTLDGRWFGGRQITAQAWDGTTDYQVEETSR", "assay": "ITC; apparent; Cus2 or Tat-SF1 proteins titrated with Hsh155 ULM peptide (95-109); 50 mM NaCl, 25 mM HEPES pH 7.4, 0.2 mM TCEP; VP-ITC; three replicates", "details": "both partners purified"}, "[5]": {"target": "T4, Cus2 D204K with C-terminal His-tag (S. cerevisiae, UniProt P53830 1-285, D204K)", "T4 construct": "also called D204K mutant Cus2; recombinant Cus2^D204K; source: expressed and purified the same as wild-type Cus2, at the University of California Berkeley QB3 MacroLab", "T4 sequence (looked up)": "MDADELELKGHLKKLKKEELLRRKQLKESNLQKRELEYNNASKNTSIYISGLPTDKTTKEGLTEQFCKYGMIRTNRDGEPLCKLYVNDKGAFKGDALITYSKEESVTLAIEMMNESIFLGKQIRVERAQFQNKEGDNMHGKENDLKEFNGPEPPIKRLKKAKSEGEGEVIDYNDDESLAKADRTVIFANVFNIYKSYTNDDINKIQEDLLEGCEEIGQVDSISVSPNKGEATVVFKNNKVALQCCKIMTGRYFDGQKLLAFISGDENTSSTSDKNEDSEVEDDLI", "assay": "ITC; apparent; Cus2 or Tat-SF1 proteins titrated with Hsh155 ULM peptide (95-109); 50 mM NaCl, 25 mM HEPES pH 7.4, 0.2 mM TCEP; VP-ITC; three replicates", "details": "both partners purified"}, "[6]": {"target": "T5, Cus2, full length, fused to the GAL4 DNA-binding domain (S. cerevisiae, UniProt P53830 1-285)", "T5 sequence (looked up)": "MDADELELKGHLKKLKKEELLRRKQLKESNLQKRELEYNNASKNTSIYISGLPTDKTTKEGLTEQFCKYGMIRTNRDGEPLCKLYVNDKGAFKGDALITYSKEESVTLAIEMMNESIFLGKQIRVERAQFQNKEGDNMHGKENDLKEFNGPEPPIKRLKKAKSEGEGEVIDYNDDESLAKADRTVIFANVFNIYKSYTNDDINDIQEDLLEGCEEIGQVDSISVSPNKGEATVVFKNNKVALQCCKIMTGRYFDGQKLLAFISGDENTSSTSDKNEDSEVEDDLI", "assay": "cell-based or functional assay"}, "[7]": {"target": "T6, GB1-Cus2, full length, with N-terminal His-tag and GB1 solubility tag (S. cerevisiae, UniProt P53830 1-285)", "T6 construct": "also called full-length Cus2 protein; not shown: GB1, N-terminal, kept", "T6 sequence (looked up)": "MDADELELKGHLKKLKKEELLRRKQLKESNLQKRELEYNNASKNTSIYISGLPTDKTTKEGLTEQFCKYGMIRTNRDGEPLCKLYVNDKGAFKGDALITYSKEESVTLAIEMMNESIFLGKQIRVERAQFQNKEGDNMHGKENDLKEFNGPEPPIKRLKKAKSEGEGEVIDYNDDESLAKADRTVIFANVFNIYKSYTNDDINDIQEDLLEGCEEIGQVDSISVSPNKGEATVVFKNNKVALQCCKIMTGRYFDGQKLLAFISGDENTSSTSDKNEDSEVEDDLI", "assay": "pull-down; GST-fusion protein or GST (100 µg) immobilised on glutathione agarose, GB1-Cus2 (500 µg in 500 µL) added for 30 min; 100 mM NaCl, 25 mM HEPES pH 7.4, 10% glycerol, 0.1% NP-40; six washes; SDS-PAGE, Coomassie", "details": "both partners purified"}, "Tat-SF1 (residues 1-360) [8]": {"target": "T7, Tat-SF1 (residues 1-360) (human, UniProt O43719 1-360)", "T7 chain": "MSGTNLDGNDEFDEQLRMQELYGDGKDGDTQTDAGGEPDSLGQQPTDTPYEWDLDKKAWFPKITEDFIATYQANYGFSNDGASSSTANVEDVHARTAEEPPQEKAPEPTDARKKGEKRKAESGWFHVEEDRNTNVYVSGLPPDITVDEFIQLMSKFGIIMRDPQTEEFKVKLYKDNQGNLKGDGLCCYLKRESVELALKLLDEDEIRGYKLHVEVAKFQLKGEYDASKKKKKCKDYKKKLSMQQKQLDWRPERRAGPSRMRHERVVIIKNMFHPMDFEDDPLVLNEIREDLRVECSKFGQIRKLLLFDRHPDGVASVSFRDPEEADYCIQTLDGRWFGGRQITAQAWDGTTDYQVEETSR", "assay": "ITC"}}, "data": [{"molecule": "Tat-SF1 (from UniProt O43719)", "values": [{"measurement": "Kd", "setting": "[1]", "value": 800, "unit": "nM"}]}, {"molecule": "RKRKSRWDVKGYEPP (peptide, UniProt P49955 95-109, looked up, source: synthetic peptide, bought: Biomatik Corp. (98% purity))", "note": "[Hsh155 ULM peptide (residues 95-109)]", "values": [{"measurement": "Kd", "setting": "[2]", "value": 32, "unit": "nM"}, {"measurement": "stoichiometry N", "setting": "[2]", "value": "~1"}, {"measurement": "Kd", "setting": "[3]", "value": 18, "unit": "nM"}, {"measurement": "stoichiometry N", "setting": "[3]", "value": "~1"}, {"measurement": "Kd", "setting": "Tat-SF1 (residues 1-360) [4]", "value": 229, "unit": "nM"}, {"measurement": "stoichiometry N", "setting": "Tat-SF1 (residues 1-360) [4]", "value": "~1"}, {"measurement": "Kd", "setting": "[5]", "value": 1020, "unit": "nM"}, {"measurement": "stoichiometry N", "setting": "[5]", "value": "~1"}]}, {"molecule": "Hsh155 R100D, W101A fused to the GAL4 activation domain (natural protein, S. cerevisiae, UniProt P49955 1-971, looked up) MSHPIQFVNANNSDKSHQLGGQYSIPQDLRENLQKEAARIGENEKDVLQEKMETRTVQNREDSYHKRRFDMKFEPDSDTQTVTSSENTQDAVVPRKRKSDADVKGYEPPDESSTAVKENSDSALVNVEGIHDLMFFKPSDHKYFADVISKKPIDELNKDEKKERTLSMLLLKIKNGNTASRRTSMRILTDKAVTFGPEMIFNRLLPILLDRSLEDQERHLMIKTIDRVLYQLGDLTKPYVHKILVVAAPLLIDEDPMVRSTGQEIITNLSTVAGLKTILTVMRPDIENEDEYVRNVTSRAAAVVAKALGVNQLLPFINAACHSRKSWKARHTGIKIVQQIGILLGIGVLNHLTGLMSCIKDCLMDDHVPVRIVTAHTLSTLAENSYPYGIEVFNVVLEPLWKGIRSHRGKVLSSFLKAVGSMIPLMDPEYAGYYTTEAMRIIRREFDSPDDEMKKTILLVLQKCSAVESITPKFLREEIAPEFFQKFWVRRVALDRPLNKVVTYTTVTLAKKLGCSYTIDKLLTPLRDEAEPFRTMAVHAVTRTVNLLGTADLDERLETRLIDALLIAFQEQTNSDSIIFKGFGAVTVSLDIRMKPFLAPIVSTILNHLKHKTPLVRQHAADLCAILIPVIKNCHEFEMLNKLNIILYESLGEVYPEVLGSIINAMYCITSVMDLDKLQPPINQILPTLTPILRNKHRKVEVNTIKFVGLIGKLAPTYAPPKEWMRICFELLELLKSTNKEIRRSANATFGFIAEAIGPHDVLVALLNNLKVQERQLRVCTAVAIGIVAKVCGPYNVLPVIMNEYTTPETNVQNGVLKAMSFMFEYIGNMSKDYIYFITPLLEDALTDRDLVHRQTASNVITHLALNCSGTGHEDAFIHLMNLLIPNIFETSPHAIMRILEGLEALSQALGPGLFMNYIWAGLFHPAKNVRKAFWRVYNNMYVMYQDAMVPFYPVTPDNNEEYIEELDLVL", "values": [{"measurement": "pre-mRNA coimmunoprecipitated with Lea1-TAP in the absence of ATP (ATP-independent pre-spliceosome formation) in Hsh155^RW-DA extract relative to wild-type extract", "setting": "[6]", "value": "~11", "unit": "fold"}]}, {"molecule": "ENTQDAVVPRKRKSRWDVKGYEPPDESSTAVKENSDSALVNVEG (domain or fragment, S. cerevisiae, UniProt P49955 86-129, looked up, also called ^GSTHsh155^ULM; Hsh155^ULM)", "note": "[GST-Hsh155 (86-129)]", "values": [{"measurement": "binding result", "setting": "[7]", "value": "binds"}]}, {"molecule": "KRKSRWDETPASQMGGSTP", "note": "[ULM5]", "values": [{"measurement": "Kd", "setting": "Tat-SF1 (residues 1-360) [8]", "value": 800, "unit": "nM"}]}, {"molecule": "SF3b1 ULM (protein) SQPPSKRKRRWDQTADQTPGATPKKLSSWDQAETPGHTPSLRWDETPGRAKGSETPGATPGSKIWDPTPSHTPAGAATPGRGDTPGHATPGHGGATSSARKNRWDETPKTERDTPGHGSGWAETPRTDRGGDSIGETPTPGASKRKSRWDETPAS", "values": [{"measurement": "Kd", "setting": "Tat-SF1 (residues 1-360) [8]", "value": 1800, "unit": "nM"}]}]}
